Experimental data published in publication PMC5344419, “The structure of FKBP38 in complex with the MEEVD tetratricopeptide binding-motif of Hsp90” (PLoS ONE, 2017).
“Also recorded” adds a separate entry of the source. Like-named read-outs stand apart in the source and are kept apart here.

Experiments:
[1] = test system: yeast Hsp90; design: method as in 2 sources, ref [41] = [41]; PMID 12504007; doi:10.1016/s1097-2765(02)00785-2; 41 Panaretou B , Siligardi G , Meyer P , Maloney A , Sullivan JK , Singh S , et al Activation of the ATPase activity of hsp90 by the stress-regulated cochaperone aha1 . Mol Cell . 2002; 10 ( 6 ): 130 ||| ref [42] = [42]; PMID 9927435; doi:10.1093/emboj/18.3.754; 42 Prodromou C , Siligardi G , O'Brien R , Woolfson DN , Regan L , Panaretou B , et al Regulation of Hsp90 ATPase activity by tetratricopeptide repeat (TPR)-domain co-chaperones . Embo J . 1999; 18; conditions: cited from earlier work
[2] = test system: FKBP^92-207; assay: Isothermal titration calorimetry (ITC), binding to the immunophilin domain alone; conditions: full-length Hsp90β, 20 mM Tris, 300 mM NaCl, 1mM EDTA pH 7.5, 700 to 800 μM FKBP^92-207 injected into 50 μM Hsp90β
From the text: (§1) FKBP8 (FKBP^1-380) was cloned as an NdeI-HindIII fragment representing amino acids 1–380 and lacking the C-terminal trans-membrane helix into pDMXV4 with a non-cleavable C-terminal His6-Tag (Fig 1). The FKBP38 immunophilin domain, representing amino acids 92–207 (FKBP^92-207), and a larger fragment containing both the immunophilin and TPR domain (FKBP^92-380) were also cloned in pDMXV4 (Fig 1). The K307E mutation was generated in the FKBP8^92-380 construct by PCR mutagenesis. Full-length human Hsp90β, human Hsp70, two middle domain human fragments (Hsp90β^295–689 and Hsp90β^295–724) and a yeast C-terminal fragment of Hsp90 (yHsp90^546-709) were expressed from pRSETA as His-tagged fusions. The Hsp90α^464–732 construct was expressed from p2E (A. Oliver, University of Sussex), as a PreScission cleavable His-tagged fusion. […]
(§2) Proteins were dialysed overnight into 20 mM Tris, 300 mM NaCl, 1mM EDTA pH 7.5. The heat of interaction was measured on an ITC200 microcalorimeter (Microcal), with a cell volume of 200 μL, under the same buffer conditions. […] Heats of dilution were determined in a separate experiment by diluting protein into buffer, and the corrected data were fitted using a non-linear least-squares curve-fitting algorithm (Microcal Origin) with three floating variables: stoichiometry, binding constant and change in enthalpy of interaction.

[3] = biological target: T1, FKBP^1-380 (Homo sapiens, UniProt Q14318); assay: Isothermal titration calorimetry (ITC), binding to FKBP^1-380 (FKBP8 isoform lacking the transmembrane domain); conditions: ITC (ITC200); intact protein or domain fragment; 20 mM Tris, 300 mM NaCl, 1mM EDTA pH 7.5; method: 700 to 800 μM FKBP injected into 50 μM Hsp90; Fig 2 picture: Hsp90β into FKBP^1-380 (panel C)
T1 construct: representing amino acids 1–380 and lacking the C-terminal trans-membrane helix; made in house; host or cells: E. coli BL21 (DE3)
T1 sequence (Q14318 1-380): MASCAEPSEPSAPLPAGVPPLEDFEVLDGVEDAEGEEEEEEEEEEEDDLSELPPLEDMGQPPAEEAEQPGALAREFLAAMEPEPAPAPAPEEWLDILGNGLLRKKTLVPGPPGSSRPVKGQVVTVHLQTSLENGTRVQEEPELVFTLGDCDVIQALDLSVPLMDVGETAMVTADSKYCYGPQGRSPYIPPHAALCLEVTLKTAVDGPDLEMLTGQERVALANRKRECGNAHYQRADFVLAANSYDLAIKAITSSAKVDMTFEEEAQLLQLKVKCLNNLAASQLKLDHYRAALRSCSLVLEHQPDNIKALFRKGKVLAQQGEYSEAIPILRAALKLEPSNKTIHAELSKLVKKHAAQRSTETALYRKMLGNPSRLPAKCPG
From the text: as §1, §2

[4] = biological target: FKBP^92-380; assay: Isothermal titration calorimetry (ITC), binding to FKBP^92-380 (FKBP38 isoform); conditions: ITC (ITC200); 20 mM Tris, 300 mM NaCl, 1mM EDTA pH 7.5; 700 to 800 μM FKBP^92-380 injected into 50 μM intact Hsp90β
From the text: as §1, §2

[5] = test system: FKBP^92-380; assay: Analytical gel-filtration chromatography, co-migration with FKBP^92-380; format: binding; conditions: Superdex 200; equimolar mixture; 50 mM Tris, 300 mM NaCl, 1 mM EDTA, 0.5 mM TCEP, pH 7.5
Procedure: Equimolar concentrations of the C-terminal fragment of yHsp90^546-709 and FKBP^92-380 were mixed and loaded onto an analytical Superdex 200 column equilibrated in 50 mM Tris, 300 mM NaCl, 1 mM EDTA and 0.5 mM TCEP at pH 7.5.

[6] = test system: K307E mutant of FKBP^92-380; assay: Isothermal titration calorimetry (ITC), binding to the K307E carboxylate clamp mutant; conditions: 20 mM Tris, 300 mM NaCl, 1mM EDTA pH 7.5, 700 to 800 μM mutant injected into 50 μM yeast Hsp90^546-709
From the text: as §1, §2

[7] = biological target: T1, FKBP^1-380; assay: Gel-filtration chromatography, co-migration with FKBP^1-380 (as in the legend of Fig 2L); format: binding; conditions: Fig 2L legend: yHsp90^546-709, FKBP^1-380 and their mixture; Superdex 200, pH 7.5

Substance: Sti1: TPR domain protein Sti1 (HOP in humans)
- effect on ATPase activity of yeast Hsp90 ([1]; TPR domain protein Sti1 (HOP in humans), previous studies, ref [42]): inhibit; also recorded: strong inhibitor

Substance: Hsp90β: Full-length human Hsp90β, expressed as His-tagged fusion
- binding (in words) [2]: failed to bind
- Kd [3]: 2.8 ± 0.1 µM
- Kd [4]: 2600 ± 200 nM

Substance: Hsp90β^295-724: fragment representing the middle and C-terminal domain of Hsp90β
- Kd [3]: 6.4 ± 0.5 µM

Substance: yHsp90^546-709: yeast C-terminal fragment of Hsp90
- co-migration in gel filtration [5]: co-migrated
- binding (in words) [6]: failed to bind
- co-migration in gel filtration [7]: co-migrate as a complex

Substance: Cpr6: yeast peptidyl-propyl isomerase
- effect on ATPase activity of yeast Hsp90 ([1]; peptidyl-propyl isomerase Cpr6, previous studies, ref [41]): weakly activates
